Molecular target: T1, SloR (purified native) (UniProt I6L923 1-217)
T1 sequence: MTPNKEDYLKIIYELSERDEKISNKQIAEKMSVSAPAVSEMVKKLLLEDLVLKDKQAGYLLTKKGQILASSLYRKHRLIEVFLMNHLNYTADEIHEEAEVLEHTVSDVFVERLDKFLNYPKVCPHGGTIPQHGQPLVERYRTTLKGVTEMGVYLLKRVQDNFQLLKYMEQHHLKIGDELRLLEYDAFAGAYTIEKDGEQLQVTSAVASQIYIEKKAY
Experiment: BLI

B1: mntH.22.SRE3.WT (dsDNA)
DNA 1: CAGTAATTCTTACAAACTCTTT
DNA 2: AAAGAGTTTGTAAGAATTACTG
binding result: no binding
